Test results from paper doi:10.1101/2020.02.24.962464, “Kinetics characterization of ASXL1/2-mediated allosteric regulation of BAP1 deubiquitinase” (bioRxiv, 2020).
“And” between values parts separate entries of the source, which are not always exact repeats. Equal values may be shown once.

B1: His-ULD/AB protein complex (pETDuet-1-His-BAP1-ULD+ASXL2-AB) (complex, human)
chain 1: KEVVEATDSREKTGMVRPGEPLSGEKYSPKELLALLKCVEAEIANYEACLKEEVEKRKKFKIDDQRRTHNYDEFICTFISMLAQEGMLANLVEQNISVRRRQGVSIGRLHKQRKPDRRKRSRPYKAKRQ
chain 2: MKRTKCADIDVETPDSILVNTNLRALINKHTFSVLPGDCQQRLLLLLPEVDRQVGPDGLMKLNGSALNNEFFTSAAQGWKERLSEGEFTPEMQVRIRQEIEKEKKVEPWKEQFFESYYGQS
notes: BAP1, human, ULD domain; ASXL2, human, AB box; Complex formed beforehand by co-expression; used as one analyte in pull-down, SPR and Ub-AMC assays; also called ULD/AB complex; Duet-His-ULD/AB; source: E. coli Rosetta 2 (DE3) pLysS, co-expressed from pETDuet-1, purified (cobalt beads, Talon, native conditions)
B2: His-BAP1-ULD (601-729 aa) (domain or fragment, human, UniProt Q92560 601-729, looked up)
chain: KEVVEATDSREKTGMVRPGEPLSGEKYSPKELLALLKCVEAEIANYEACLKEEVEKRKKFKIDDQRRTHNYDEFICTFISMLAQEGMLANLVEQNISVRRRQGVSIGRLHKQRKPDRRKRSRPYKAKRQ
notes: BAP1, human, UCH37-like domain (ULD), residues 601-729 (pQE30-BAP1-ULD); also called His-ULD; ULD domain
B3: His-ASXL2-AB (261-381 aa) (domain or fragment, human, UniProt Q76L83 261-381, looked up)
chain: MKRTKCADIDVETPDSILVNTNLRALINKHTFSVLPGDCQQRLLLLLPEVDRQVGPDGLMKLNGSALNNEFFTSAAQGWKERLSEGEFTPEMQVRIRQEIEKEKKVEPWKEQFFESYYGQS
notes: ASXL2, human, AB box, residues 261-381 (pQE30-ASXL2-AB); also called His-AB; AB box

Columns and labels:
[1] = biological target: T1, full-length His-BAP1 (Bv-His-BAP1-FL-WT) (human, UniProt Q92560 1-729); assay: cell-based or functional assay
T1 sequence (looked up): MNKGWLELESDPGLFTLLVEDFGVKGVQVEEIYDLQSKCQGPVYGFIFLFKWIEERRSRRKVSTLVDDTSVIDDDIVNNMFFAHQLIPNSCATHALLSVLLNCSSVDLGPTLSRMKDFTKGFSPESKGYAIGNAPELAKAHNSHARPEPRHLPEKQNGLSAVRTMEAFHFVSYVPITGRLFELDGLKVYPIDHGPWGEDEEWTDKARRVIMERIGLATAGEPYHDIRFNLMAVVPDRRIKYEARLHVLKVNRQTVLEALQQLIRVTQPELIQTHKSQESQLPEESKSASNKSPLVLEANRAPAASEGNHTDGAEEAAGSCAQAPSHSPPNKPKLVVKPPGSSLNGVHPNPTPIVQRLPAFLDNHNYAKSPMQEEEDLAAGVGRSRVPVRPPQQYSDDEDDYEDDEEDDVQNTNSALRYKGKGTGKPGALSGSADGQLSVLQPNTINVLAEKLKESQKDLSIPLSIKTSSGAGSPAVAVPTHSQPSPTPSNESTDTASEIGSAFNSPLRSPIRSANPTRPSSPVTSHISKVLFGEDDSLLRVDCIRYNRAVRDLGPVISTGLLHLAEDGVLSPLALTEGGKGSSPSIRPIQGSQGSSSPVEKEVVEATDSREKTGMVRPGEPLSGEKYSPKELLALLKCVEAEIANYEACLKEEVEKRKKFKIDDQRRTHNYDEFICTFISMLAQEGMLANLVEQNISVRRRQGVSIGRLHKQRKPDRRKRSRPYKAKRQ

[2] = biological target: T2, full-length His-BAP1 (Bv-His-BAP1-FL-WT) (human, UniProt Q92560 1-729); assay: SPR; steady-state equilibrium
T2 chain: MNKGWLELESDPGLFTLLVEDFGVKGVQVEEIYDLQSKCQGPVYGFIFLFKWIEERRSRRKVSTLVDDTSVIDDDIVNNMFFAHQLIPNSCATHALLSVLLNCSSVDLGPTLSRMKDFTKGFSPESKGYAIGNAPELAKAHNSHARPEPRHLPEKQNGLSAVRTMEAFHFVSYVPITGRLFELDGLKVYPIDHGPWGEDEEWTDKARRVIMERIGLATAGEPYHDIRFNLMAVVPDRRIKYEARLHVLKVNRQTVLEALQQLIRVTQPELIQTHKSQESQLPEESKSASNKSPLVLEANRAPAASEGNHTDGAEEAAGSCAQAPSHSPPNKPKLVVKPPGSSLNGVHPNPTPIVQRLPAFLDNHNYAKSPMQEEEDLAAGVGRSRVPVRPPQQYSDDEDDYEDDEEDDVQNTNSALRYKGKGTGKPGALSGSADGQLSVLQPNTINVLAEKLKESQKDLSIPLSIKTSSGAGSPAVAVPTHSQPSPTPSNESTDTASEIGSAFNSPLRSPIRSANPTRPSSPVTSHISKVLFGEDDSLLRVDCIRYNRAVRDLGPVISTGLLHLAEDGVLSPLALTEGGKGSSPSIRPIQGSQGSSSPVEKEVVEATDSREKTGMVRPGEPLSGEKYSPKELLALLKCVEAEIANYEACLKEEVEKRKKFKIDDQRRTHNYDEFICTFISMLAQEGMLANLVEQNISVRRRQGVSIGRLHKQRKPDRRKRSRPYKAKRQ

[3] = biological target: T1, full-length His-BAP1 (Bv-His-BAP1-FL-WT); assay: SPR; Biacore T200; full-length His-BAP1, GST-UCH or GST alone amine-coupled to a CM5 chip (~3000 RU), His-ULD/AB complex injected; 25 mM HEPES pH 7.4, 250 mM NaCl, 5 mM DTT, 0.05% Tween20; steady-state and kinetic one-site fits; conditions: both partners purified
[4] = biological target: B3; assay: ITC; Microcal ITC 200; His-AB 77 µM in the cell, His-ULD 574 µM titrated; 50 mM potassium phosphate pH 7.5, 200 mM potassium chloride, 1 mM TCEP; duplicate; conditions: both partners purified
[5] = biological target: B2; assay: as above; conditions: both partners purified
[6] = biological target: T3, GST-BAP1-ULD (human, UniProt Q92560 601-729); assay: SPR; Biacore T200; GST-ULD captured by anti-GST antibody on a CM5 chip (400 RU), His-AB injected; 25 mM HEPES pH 7.4, 150 mM NaCl, 5 mM DTT, 0.05% Tween20; steady-state and kinetic one-site fits; conditions: both partners purified
T3 construct: BAP1, human, ULD domain; also called GST-ULD; pGEX-4T-1-BAP1-ULD; source: E. coli BL21 (DE3), purified (GST resin, native conditions)
T3 sequence (looked up): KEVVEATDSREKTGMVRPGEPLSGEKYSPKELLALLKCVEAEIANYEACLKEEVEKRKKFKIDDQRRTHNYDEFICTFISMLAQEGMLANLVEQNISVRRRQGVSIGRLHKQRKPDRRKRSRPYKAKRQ

[7] = biological target: B1; assay: SPR; Biacore T200; full-length His-BAP1, GST-UCH or GST alone amine-coupled to a CM5 chip (~3000 RU), His-ULD/AB complex injected; 25 mM HEPES pH 7.4, 250 mM NaCl, 5 mM DTT, 0.05% Tween20; steady-state and kinetic one-site fits; conditions: both partners purified

With B1 the “fold increase of BAP1 specific activity (100 nM Ub-AMC) with increasing concentrations of His-ULD/AB” value [1] was 4.5 fold, the Kd [2] was 740 nM and the Kd [3] was 850 nM and 1910 nM. It also gave a koff [3] of 0.033 s⁻¹ and a kon [3] of 39000 M⁻¹ s⁻¹.

For B2, the dH [4] was -9.87 kcal/mol and the “stoichiometry N” value [4] was 1.

In the case of B3, the “fold increase of the maximal velocity of BAP1 cleavage of Ub-AMC with increasing concentrations of ASXL2-AB” value [1] is reported as 2.5 fold, the Kd [5] is reported as roughly 4260 nM and the Kd [6] is reported as 134 nM and 67 nM. It also gave a koff [6] of 0.0024 s⁻¹ and a kon [6] of 38000 M⁻¹ s⁻¹.

B4: GST-BAP1-UCH-WT (1-250 aa) (domain or fragment, human, UniProt Q92560 1-250, looked up)
chain: MNKGWLELESDPGLFTLLVEDFGVKGVQVEEIYDLQSKCQGPVYGFIFLFKWIEERRSRRKVSTLVDDTSVIDDDIVNNMFFAHQLIPNSCATHALLSVLLNCSSVDLGPTLSRMKDFTKGFSPESKGYAIGNAPELAKAHNSHARPEPRHLPEKQNGLSAVRTMEAFHFVSYVPITGRLFELDGLKVYPIDHGPWGEDEEWTDKARRVIMERIGLATAGEPYHDIRFNLMAVVPDRRIKYEARLHVLKV
notes: BAP1, human, ubiquitin C-terminal hydrolase (UCH) domain, residues 1-250 (pGEX-2TK-BAP1-UCH-WT); also called GST-UCH; pGEX-2TK-BAP1-UCH-WT; source: E. coli BL21 (DE3), purified (GST resin, native conditions)
With B4 the koff [7] was 0.044 s⁻¹ and the kon [7] was 19000 M⁻¹ s⁻¹.
